{
  "source": "patent US20230322857A1",
  "about": "“RECOMBINANTLY ENGINEERED POLYPEPTIDES CAPABLE OF RECYCLING NONCANONICAL COFACTORS” (The Regents of the University of California, priority 2022, published 2023)",
  "molecules": {"B1": {"name": "wild-type PTDH: wild-type phosphite dehydrogenase enzyme, literature TTN with NAD^+ (protein, UniProt O69054 1-336, looked up)", "Phosphonate dehydrogenase": "MLPKLVITHRVHDEILQLLAPHCELMTNQTDSTLTREEILRRCRDAQAMMAFMPDRVDADFLQACPELRVVGCALKGFDNFDVDACTARGVWLTFVPDLLTVPTAELAIGLAVGLGRHLRAADAFVRSGEFQGWQPQFYGTGLDNATVGILGMGAIGLAMADRLQGWGATLQYHEAKALDTQTEQRLGLRQVACSELFASSDFILLALPLNADTQHLVNAELLALVRPGALLVNPCRGSVVDEAAVLAALERGQLGGYAADVFEMEDWARADRPRLIDPALLAHPNTLFTPHIGSAVRAVRLEIERCAAQNIIQVLAGARPINAANRLPKAEPAAC"}, "B2": {"name": "TS-PTDH: 16× thermostable variant of Pseudomonas stutzeri phosphite dehydrogenase (SEQ ID NO:2), engineering template (protein, listed as Pseudomonas stutzeri)", "chain": "MLPKLVITHRVHEEILQLLAPHCELITNQTDSTLTREEILRRCRDAQAMMAFMPDRVDADFLQACPELRVIGCALKGFDNFDVDACTARGVWLTFVPDLLTVPTAELAIGLAVGLGRHLRAADAFVRSGKFRGWQPRFYGTGLDNATVGFLGMGAIGLAMADRLQGWGATLQYHEAKALDTQTEQRLGLRQVACSELFASSDFILLALPLNADTLHLVNAELLALVRPGALLVNPCRGSVVDEAAVLAALERGQLGGYAADVFEMEDWARADRPQQIDPALLAHPNTLFTPHIGSAVRAVRLEIERCAAQNILQALAGERPINAVNRLPKANPAAD"}},
  "key": {"[1]": {"conditions": "reported values; cited from earlier work"}, "[2]": {"test": "Specific activity of TS-PTDH variants with NMN^+", "format": "biochemical", "conditions": "100 mM MOPS pH 7.25, 10 mM sodium Pt, 4 mM cofactor, 25° C.", "description": "(§1) Purification and Characterization of TS-PTDH Variants. The E. coli BL21(DE3) strains harboring pQElac plasmids encoding the TS-PTDH or TS-PTDH variants were grown in 2×YT media with kanamycin and ampicillin at 37° C. The IPTG-inducible expression, Ni-affinity purification, and protein concentration determination was conducted as described above.\nThe specific activities of TS-PTDH and variants were measured with the following methods. Briefly, the reaction mixture contained 100 mM MOPS buffer, pH 7.25, 10 mM sodium Pt, and 4 mM cofactor (NAD^+, NADP^+, or NMN^+). The formation of reduced coenzyme was measured by light absorption at 340 nm in a 96-well plate at 25° C. Absorption was correlated to a molar basis using the extinction coefficient (ε) of 6.22 mM^−1 cm^−1 for each cofactor."}, "[3]": {"test": "Steady-state kinetics of TS-PTDH variants with NAD^+", "format": "biochemical", "conditions": "100 mM MOPS, pH 7.25, 10 mM sodium phosphite, varied cofactor concentrations; n = 3", "description": "as §1\n(§2) The steady-state kinetic parameters toward the coenzymes were measured by spiking purified protein into a 100 μL reaction mixture containing 100 mM MOPS, pH 7.25, 10 mM sodium Pt, and varied cofactor concentrations from 0.02 mM to 5 mM at 25° C. The kinetic parameters were measured by monitoring the […] of reduced coenzyme at 340 nm. Data were fitted to the Michaelis-Menten equation to generate estimates of KM and kcat values."}, "E. coli SHuffle strain": {"system": "E. coli SHuffle strain", "test": "Recapitulation of growth restoration with TS-PTDH variants in SHuffle strain", "format": "cell-based, Escherichia coli", "conditions": "spotted onto agar selection plates", "description": "Selection of TS-PTDH Library. A total of 50 μL pre-made SHuffle/pLZ311 or SHuffle/pLZ312 electro-competent cells were transformed with 2 μL TS-PTDH A155N-E175-A176-L208 NNK library DNA (pLZ316) via electroporation as described above. After rescue in SOC media for 1 h, cultures were combined in 10 mL 2×YT with 10 g/L glucose, 0.5% arabinose, kanamycin and ampicillin. 0.2, or 1 μL of culture was immediately taken from the culture and plated on an 2×YT agar plates with kanamycin and ampicillin. The plate was incubated at 37° C. overnight, and the number of colonies formed was counted to estimate the library size. The liquid cultures were incubated at 37° C. with shaking for 10 h. Cells (1 mL) were washed 3 times and re-suspended in M9 Buffer. Targeted serial dilutions of cells were prepared in M9 buffer and 5 μL aliquots were dispensed in series on an agar plate of M9 selection media containing 0.5 mM diamide, 5 or 1 g/L yeast extract, 10 g/L glucose, 0.5% arabinose, 0.5 mM IPTG, 10 g/L sodium phosphite, kanamycin, ampicillin, and 5 mM NMN^+. Selection plates were incubated at 37° C., and photographs were taken to document growth progress. The independent transformants sampled was calculated as 2.4×10^6 and 2.5×10^6 colonies when plated on 5 and 1 g/L yeast extract, respectively. TS-PTDH and the template of the library, TS-PTDH A155N, were cultured in the same conditions as controls. The colonies were numbered by the order of appearance. The selected cells were re-streaked on fresh agar plate with identical media and incubated until single colonies formed on the plate. Variants that cannot forma single colony may be false positives. After extracting the plasmids from each re-streaked colony, the chosen TS-PTDH variants were amplified and moved into the pQElac vector containing a N-terminal 6×His tag for protein purification and characterization. […] 2 μL of a serial dilution of cells were deposited onto a growth selection plate and grown at 37° C."}, "[4]": {"test": "Steady-state kinetics of TS-PTDH variants with NADP^+", "format": "biochemical", "conditions": "100 mM MOPS, pH 7.25, 10 mM sodium phosphite, varied cofactor concentrations; n = 3", "description": "as §1, §2"}, "[5]": {"test": "BNA(H)-mediated PTDH biotransformation with TsOYE", "format": "biochemical", "conditions": "0, 5, 10, or 20 mM BNA^+", "description": "BNA(H)-Mediated PTDH Biotransformation. Reactions with BNA^+, see FIG. 10D, contained 100 mM MOPS-NaOH at pH 7.6, 10 mM KIP, 100 mM sodium phosphite, and 2% v/v DMSO. BNA^+Cl^−, prepared by refluxing equimolar amounts of nicotinamide and benzyl chloride in acetonitrile overnight, followed by precipitation with diethyl ether on ice was supplied to the reactions at final concentrations of 0, 5, 10, or 20 mM. Reactions were initiated by spiking TsOYE and the appropriate TS-PTDH variant to a final concentration of 10 μM, each. Reaction mixtures were incubated at 30° C. on a Thermomixer C (Eppendorf) with shaking at 900 rpm for 24 h, extracted with 500 μL ethyl acetate containing 5 mM n-dodecane, and analyzed by GC-FID. The cycling system with no BNA was used to determine the background activity of the cycling systems. This value was subtracted from the final levodione concentrations in the 5-, 10-, and 20-mM samples to determine the BNA(H)^− specific levodione production. Concentrations of levodione product were determined using a calibration line (0-10 mM, 6 levels, using n-dodecane as internal standard). The y-intercept of the calibration line was forced through 0.\nFor BNA(H)-mediated reactions, gas chromatography analyses were performed on a GC-2010 (Shimadzu, Japan) equipped with an AOC-20i auto injector and a flame ionization detector (FID), using a CP-Sil 5 column (25 m×0.25 mm×[…]). 1 μL of sample was injected with a split ratio of 100:1 and injector at 340° C. The FID was maintained at 360° C. Nitrogen was used as the carrier gas, with a linear velocity of 30 cm/s. The oven was held at 135° C. for 1 min, ramped at 15° C./min to 215° C., then 30° C./min to 345° C., and held at 345° C. for 1 min.\nExpression and Purification of Proteins for BNA(H)-Mediated Biotransformation Reactions. E. coli BL21(DE3) strains were transformed with the plasmids containing the TS-PTDH variants and grown on LB-agar plates containing ampicillin at 37° C. overnight. An overnight culture, 15 mL LB supplemented with ampicillin, was inoculated with a single colony, and grown at 37° C., 170 rpm overnight. 2 L baffled shake-flasks with 250 mL of 2×YT media containing 200 μg/mL ampicillin, were inoculated with the overnight culture, grown at 37° C., 170 rpm until OD600 of ˜1.0, induced with IPTG (0.5 mM), and grown at 30° C. and 170 rpm for 24 h. Cells were harvested by centrifugation at 18,000×g, 4° C., 10 min and stored at −20° C. until purification.\nThe pellet was resuspended in four volumes loading buffer (50 mM sodium phosphate, 300 mM sodium chloride, 10 mM imidazole, pH 7.7), and lysed on ice by sonication (Branson sonifier 250; 15 min total, 40% duty cycle, output control 3.5, 2 mm tip). The lysate was clarified (21,000×g, 4° C., 30 min followed by 0.2 μm filtration), and loaded (1 mL/min) onto a Nickel-HisTrap FF crude (1 mL) column, washed with loading buffer (12 column volumes, CV), followed by a step with 10% elution buffer (loading buffer containing 250 mM imidazole; 12 CV). The protein was then eluted with 100% elution buffer and collected in fractions of 0.5 mL. Fractions containing protein were combined and dialyzed against ice-cold dialysis buffer (50 mM sodium phosphate, pH 7.7, 800 mL); the buffer was renewed after the first 2 h of dialysis. Following the dialysis, the protein was mixed with glycerol (20% v/v final concentration). Enzyme concentrations were estimated by the absorbance at 280 nm (non-denatured protein), using predicted extinction coefficients (wild type and LY-13: 26470, LY-7: […]; web.expasy.org/protparam/). The protein was aliquoted, flash frozen in liquid nitrogen, and stored at −80° C. until use. […]"}, "[6]": {"test": "Steady-state kinetics of TS-PTDH variants with NMN^+", "format": "biochemical", "conditions": "enzyme could not be saturated; 100 mM MOPS, pH 7.25, 10 mM sodium phosphite", "description": "as §1, §2"}},
  "data": [
    {"molecule": "B1", "values": [
      {"measurement": "TTN with NAD^+", "setting": "[1]", "result": "80,000"}
    ]},
    {"molecule": "B2", "values": [
      {"measurement": "NMN^+-dependent specific activity", "setting": "[2]", "result": "53.0 ± 3.4", "unit": "nmol/min/mg"},
      {"measurement": "Km", "setting": "[3]", "result": "60 ± 10", "unit": "µM"},
      {"measurement": "NAD^+ kcat", "setting": "[3]", "result": "1.03 ± 0.01", "unit": "s⁻¹"},
      {"measurement": "growth restoration, co-expression with NMNH-specific Gor Ortho", "setting": "E. coli SHuffle strain", "result": "grew poorly"},
      {"measurement": "growth, co-expression with wild type Ec Gor", "setting": "E. coli SHuffle strain", "result": "supported cell growth"},
      {"measurement": "Km", "setting": "[4]", "result": "740 ± 40", "unit": "µM"},
      {"measurement": "NADP^+ kcat", "setting": "[4]", "result": "0.57 ± 0.01", "unit": "s⁻¹"},
      {"measurement": "response of biotransformation efficiency to BNA^+ concentration", "setting": "[5]", "result": "cofactor dose-dependent response"},
      {"measurement": "Km", "setting": "[6]", "result": "> 5000", "unit": "µM"}
    ]}
  ]
}
